Data published in US20040132025A1, “Ampk-related serine/threonine kinase, designated snark” (priority 2001, published 2004).
Marks after values point to notes of the source that are not given here. Values belong to the molecule of their own block, whether it stands above or below them.

Columns and labels:
AMPK-α2 = biological target: T1, AMPK-α2 (Rattus norvegicus, UniProt P80385+Q09137); experiment: AMPK-α2 activity in NRKC cells treated with AICAR; type: cell-based; settings: ImM AICAR, same assay conditions, data not shown
T1 construct: increased at least 2-fold upon treatment with ImM AICAR in NRKC cells; endogenous in cells; host or cells: NRKC (neonatal rat keratinocytes)

AMPKα1 = biological target: T2, AMPKα1 (Rattus norvegicus, UniProt P54645+P80385); experiment: AMPKα1 activity in NRKC cells treated with AICAR; type: cell-based; settings: treatment with AICAR, data not shown
T2 construct: endogenous in cells; host or cells: NRKC (neonatal rat keratinocytes)

SNARK [1] = biological target: T3, SNARK (Rattus norvegicus, UniProt Q66HE5); experiment: Activation of SNARK in NRKC cells using AICAR; type: cell-based; design: In the assays performed with SNARK immunoprecipitated from NRKC cell lysates; endogenous in cells; host or cells: NRKC (neonatal rat keratinocytes); settings: 1 mM AICAR for one hour, kinase assay with 200 μM AMP and SAMS peptide, p<0.05
T3 sequence (Q66HE5 1-630): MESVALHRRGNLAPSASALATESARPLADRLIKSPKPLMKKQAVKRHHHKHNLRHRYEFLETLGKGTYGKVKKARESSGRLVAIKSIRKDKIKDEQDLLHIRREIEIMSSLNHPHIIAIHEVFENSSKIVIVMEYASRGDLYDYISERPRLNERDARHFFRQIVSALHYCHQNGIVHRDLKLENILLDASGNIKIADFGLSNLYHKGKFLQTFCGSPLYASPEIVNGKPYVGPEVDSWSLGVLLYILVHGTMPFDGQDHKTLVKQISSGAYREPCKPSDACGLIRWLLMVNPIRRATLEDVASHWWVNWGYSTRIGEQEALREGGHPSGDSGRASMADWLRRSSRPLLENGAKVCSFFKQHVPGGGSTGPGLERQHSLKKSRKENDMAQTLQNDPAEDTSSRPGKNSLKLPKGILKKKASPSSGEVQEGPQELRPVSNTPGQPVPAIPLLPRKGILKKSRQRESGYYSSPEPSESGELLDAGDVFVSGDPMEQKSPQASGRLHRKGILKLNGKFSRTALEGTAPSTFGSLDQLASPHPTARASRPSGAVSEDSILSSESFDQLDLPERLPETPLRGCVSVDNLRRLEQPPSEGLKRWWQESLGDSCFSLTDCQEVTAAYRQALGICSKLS
Protocol: FIG. 8.(A) Activation of SNARK in NRKC cells using AICAR. NRKC cells were treated with 0, 0.5 mM, 1 mM or 2 mM AICAR for 1 hour. SNARK protein was immunoprecipitated from 500 μg of cell lysates with SNARK antiserum and kinase assays were performed in the presence of 200 μM AMP using the SAMS peptide. Solid box represents control (0 mM AICAR) samples and hatched boxes represent AICAR-treated samples. Data is expressed as phosphotransferase activity relative to control values (control=1) and represents the means±S.E.M. for 2 individual experiments with at least 10 samples per group per experiment. *p<0.06, relative to control values. […] Results are expressed as phosphotransferase activity relative to control values (control=1) and represents the mean±S.E.M. from 2 individual experiments with at least 10 samples per group per experiment. *p<0.03, relative to control values. […]
The adenosine analogue, 5-aminoimidizole-4-carboxamide riboside (AICAR), provides a means of stimulating AMPK activity in whole cells, even in the presence of high glucose concentrations, and mimics the effects of AMP on the AMPK cascade. Intriguingly, SNARK activity was induced 2.8-fold (p<0.05) in NRKC cells when treated with 1 mM AICAR for one hour (FIG. 8A, hatched box), as compared to SNARK activity measured in untreated NRKC cells (solid box).

SNARK [2] = experiment: SNARK phosphotransferase activity (SAMS peptide) assayed in the presence of AMP, wildtype and SNARK-transfected BHK cell lysates; type: biochemical, hamster; settings: 200 μM AMP in assay; wildtype BHK cell lysates
Protocol: (§1) FIG. 7. […] SNARK protein was immunoprecipitated from 500 μg of cell lysate from wildtype BHK, BHK−1, BHK+1 and BHK+11 cells. Kinase assays were performed using the 200 μM SAMS peptide as substrate in kinase reaction cocktail. NRKC cells (stippled box); wildtype BHK cells (solid box); BHK+1 and +11 cells (hatched boxes). Results are the means±S.E.M. for 2 experiments (n=5 each time). For comparative purposes, AMPKα2 activity was assayed in these cell lines and found to be equivalent to, 4-fold lower and 1.5-fold lower than the SNARK activity levels measured under basal growth conditions in wildtype BHK, SNARK-transfected BHK and NRKC cell lines, respectively (data not shown).
(§2) Kinase Assay—Following immunoprecipitation with antiserum, SNARK activity was analysed by performing kinase assays with immunoprecipitated SNARK and a variety of substrates (MBP, B-casein, whole histone fraction, protamine sulphate and a synthetic peptide substrate (HMRSAMSGLHLVKRR, ‘SAMS’ peptide). Kinase assays with the SAMS peptide were performed essentially as described, except that the three washes were done with IP buffer containing 500 mM NaCl followed by a final wash in kinase assay buffer. For kinase assays performed to determine substrate specificity (with substrates other than SAMS peptide), reactions included 30 ug of substrate, 500 nM PKA inhibitor peptide and 1 uM PKC inhibitor peptide. […]

SNARK [3] = biological target: T3, SNARK; experiment: as above; type: biochemical, hamster; design: The complete open reading frame of rat SNARK was subcloned into the pcDNA3.1 vector; expressed in transfected cells; settings: 200 μM AMP in assay; SNARK-transfected BHK cell lysates
Protocol: as §1, §2

SNARK [4] = biological target: T3, SNARK; experiment: SNARK phosphotransferase activity (SAMS peptide) assayed in the presence of AMP, NRKC cell lysates; type: biochemical; design: In the assays performed with SNARK immunoprecipitated from NRKC cell lysates; endogenous in cells; host or cells: NRKC (neonatal rat keratinocytes); settings: 200 μM AMP in assay; NRKC cells; p<0.001
Protocol: as §1, §2

SNARK [5] = biological target: T3, SNARK; experiment: Kinase assay of immunoprecipitated SNARK with candidate substrates (substrate specificity); type: biochemical; design: In the assays performed with SNARK immunoprecipitated from NRKC cell lysates; endogenous in cells; host or cells: NRKC (neonatal rat keratinocytes); settings: for Activity (phosphotransferase activity of SNARK towards substrate): SNARK immunoprecipitated from 500 ug NRKC cell lysate, SAMS peptide 250 uM or 30 ug of other substrate, 1 μM PKC inhibitor and 500 nM PKA inhibitor peptides, 30 C, means±S.E.M.; for Ability of SNARK to phosphorylate the substrate: SNARK immunoprecipitated from NRKC cell lysates, PKA and PKC peptide inhibitors included
Protocol: Kinase Assay—Following immunoprecipitation with antiserum, SNARK activity was analysed by performing kinase assays with immunoprecipitated SNARK and a variety of substrates (MBP, B-casein, whole histone fraction, protamine sulphate and a synthetic peptide substrate (HMRSAMSGLHLVKRR, ‘SAMS’ peptide). Kinase assays with the SAMS peptide were performed essentially as described, except that the three washes were done with IP buffer containing 500 mM NaCl followed by a final wash in kinase assay buffer. For kinase assays performed to determine substrate specificity (with substrates other than SAMS peptide), reactions included 30 ug of substrate, 500 nM PKA inhibitor peptide and 1 uM PKC inhibitor peptide. Activities were calculated as fmol of phosphate incorporated into the SAMS peptide/min per milligram of lysate subjected to immunoprecipitation, minus the activity obtained with a blank reaction (cell lysate and Protein A-Sepharose only).
Peptide inhibitors of PKA and PKC were included in these reactions to eliminate phosphorylation of these substrates by these enzymes.
Immunoprecipitation of 500 ug of NRKC cell lysate with SNARK antiserum was performed as described above. Phosphotransferase activity was assayed with either SAMS peptide (250 uM) or 30 ug of dephosphorylated MBP, dephosphorylated β-casein, whole histone fraction or protamine sulfate in the presence of 1 μM PKC inhibitor and 500 nM PKA inhibitor peptides. Phosphortransferase activity is expressed in fmol of phosphate transferred to the SAMS peptide/min at 30 C per mg of protein subjected to immunoprecipitation. Results are means±S.E.M. for two individual assays with at least eight samples per group. *p<0.01 compared with all other substrates.

SAMS peptide = experiment: cell-based or functional assay
[6] = biological target: dephosphorylated B-casein; experiment: cell-based or functional assay
[7] = biological target: dephosphorylated myelin basic protein; experiment: cell-based or functional assay
protamine sulfate = experiment: cell-based or functional assay
whole histone fraction = experiment: cell-based or functional assay

T2 sequence (P54645 whole entry): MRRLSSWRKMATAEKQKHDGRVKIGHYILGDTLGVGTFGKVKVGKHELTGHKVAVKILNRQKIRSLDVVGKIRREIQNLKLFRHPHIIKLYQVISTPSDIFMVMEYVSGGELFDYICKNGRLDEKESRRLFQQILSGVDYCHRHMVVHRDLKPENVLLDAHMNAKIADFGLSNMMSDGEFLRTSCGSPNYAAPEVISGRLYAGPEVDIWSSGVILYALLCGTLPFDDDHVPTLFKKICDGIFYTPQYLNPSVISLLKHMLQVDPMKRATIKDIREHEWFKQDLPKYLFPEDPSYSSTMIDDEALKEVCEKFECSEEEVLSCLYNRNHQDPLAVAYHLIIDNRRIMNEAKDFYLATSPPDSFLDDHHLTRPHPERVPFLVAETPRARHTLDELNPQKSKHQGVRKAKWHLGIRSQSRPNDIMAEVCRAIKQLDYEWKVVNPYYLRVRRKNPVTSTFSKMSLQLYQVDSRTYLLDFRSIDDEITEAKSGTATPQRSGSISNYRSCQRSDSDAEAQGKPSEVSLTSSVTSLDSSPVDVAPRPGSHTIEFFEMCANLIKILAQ
T2 sequence (P80386 whole entry partner): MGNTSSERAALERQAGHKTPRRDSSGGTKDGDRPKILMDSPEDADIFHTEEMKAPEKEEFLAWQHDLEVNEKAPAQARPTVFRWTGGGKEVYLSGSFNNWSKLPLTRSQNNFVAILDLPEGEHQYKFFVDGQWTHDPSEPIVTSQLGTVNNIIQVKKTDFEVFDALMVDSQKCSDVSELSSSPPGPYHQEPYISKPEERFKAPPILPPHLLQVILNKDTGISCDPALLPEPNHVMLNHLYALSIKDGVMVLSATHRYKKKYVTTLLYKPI
T2 sequence (P80385 whole entry): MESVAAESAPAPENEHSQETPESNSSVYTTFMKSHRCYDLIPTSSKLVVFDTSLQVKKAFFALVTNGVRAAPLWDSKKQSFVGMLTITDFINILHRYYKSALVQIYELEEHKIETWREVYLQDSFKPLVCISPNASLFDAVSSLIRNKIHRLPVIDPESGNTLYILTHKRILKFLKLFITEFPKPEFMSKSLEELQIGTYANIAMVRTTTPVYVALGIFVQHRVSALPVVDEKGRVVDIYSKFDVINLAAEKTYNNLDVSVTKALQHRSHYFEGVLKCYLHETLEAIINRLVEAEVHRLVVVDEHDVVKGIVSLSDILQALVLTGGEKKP
T1 sequence (Q09137 whole entry): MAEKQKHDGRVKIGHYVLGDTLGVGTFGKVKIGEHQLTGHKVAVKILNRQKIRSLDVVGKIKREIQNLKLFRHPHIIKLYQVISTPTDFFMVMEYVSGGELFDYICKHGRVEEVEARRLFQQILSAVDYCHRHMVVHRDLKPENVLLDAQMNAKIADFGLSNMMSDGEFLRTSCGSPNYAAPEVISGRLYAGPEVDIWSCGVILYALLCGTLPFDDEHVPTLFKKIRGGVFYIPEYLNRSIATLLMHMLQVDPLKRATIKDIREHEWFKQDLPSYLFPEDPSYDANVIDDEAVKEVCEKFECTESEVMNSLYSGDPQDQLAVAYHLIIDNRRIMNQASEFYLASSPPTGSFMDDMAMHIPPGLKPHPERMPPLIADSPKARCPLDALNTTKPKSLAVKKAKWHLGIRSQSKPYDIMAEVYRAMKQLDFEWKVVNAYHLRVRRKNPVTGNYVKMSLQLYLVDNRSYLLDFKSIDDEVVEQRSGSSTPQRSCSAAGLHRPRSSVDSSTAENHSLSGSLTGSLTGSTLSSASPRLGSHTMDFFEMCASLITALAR
T1 sequence (P80386 whole entry partner): as the sequence (P80386 whole entry partner) above
T1 sequence (P80385 whole entry): as the sequence (P80385 whole entry) above

Molecule: NC(=O)c1ncn([C@@H]2O[C@H](CO)[C@@H](O)[C@H]2O)c1N [AICAR, 5-aminoimidizole-4-carboxamide riboside]
Increase in AMPK-α2 activity over basal (AMPK-α2): at least 2 fold | Stimulation of AMPKα1 activity (AMPKα1): not stimulated | Induction of SNARK activity relative to untreated cells (SNARK [1]): 2.8 fold

Change in SNARK phosphotransferase activity (SNARK [3]): no significant change | Increase in SNARK phosphotransferase activity (SNARK [4]): 1.7 fold
Molecule: Nc1ncnc2c1ncn2[C@@H]1O[C@H](COP(=O)(O)O)[C@@H](O)[C@H]1O [AMP]
Change in SNARK phosphotransferase activity (SNARK [2]): no significant change

Activity (phosphotransferase activity of SNARK towards substrate) (SNARK [5]): 145 ± 46* fmol/min per mg | Ability of SNARK to phosphorylate the substrate (SNARK [5]): able to phosphorylate
Molecule: HMRSAMSGLHLVKRR [SAMS peptide, synthetic peptide AMPK substrate corresponding to the site in rat acetyl-CoA carboxylase phosphorylated by AMPK]

Ability of SNARK to phosphorylate the substrate (SNARK [5]): minimal
Molecule: Protamine sulfate
Activity (phosphotransferase activity of SNARK towards substrate) (SNARK [5]): 7 ± 2 fmol/min per mg

Activity (fmol/min per mg); phosphotransferase activity of SNARK immunoprecipitated from NRKC cell lysate (fmol/min per mg) (SAMS peptide): 145 | Activity (fmol/min per mg); phosphotransferase activity of SNARK immunoprecipitated from NRKC cell lysate (fmol/min per mg) [6]: 37 | Activity (fmol/min per mg); phosphotransferase activity of SNARK immunoprecipitated from NRKC cell lysate (fmol/min per mg) [7]: 91 | Activity (fmol/min per mg); phosphotransferase activity of SNARK immunoprecipitated from NRKC cell lysate (fmol/min per mg) (protamine sulfate): 7 | Activity (fmol/min per mg); phosphotransferase activity of SNARK immunoprecipitated from NRKC cell lysate (fmol/min per mg) (whole histone fraction): 19
Molecule: rat SNARK protein (enzyme)
